# In article PMC2172055 (The Journal of Cell Biology, 2004):
# B1: TRAM (natural protein)
# chain: MAIRKKSTKSPPVLSHEFILQNHADIVSCVAMVFLLGLMFEITAKASIIFVTLQYNVTLPATEEQATESTSLYYYGIKDLATVFFYMLVAIIIHAIIQEYVLDKINRRMHFSKTKHSKFNESGQLSAFYLFSCIWGTFILISENYISDPTILWRAYPHNLMTFQMKFFYIAQLAYWFHAFPELYFQKTKKEDIPRQLVYIGLYLFHIAGAYLLNLNHLGLVLLVLHYFVEFLFHISRLFYFSDEKYQKGFSLWAVLFVLGRLLTLILSVLTVGFGLARAENQKLDFSAGNFNVLAVRIAVLASICITQAFMMWKFINFQLRRWREHSTFQAPVVKKKPTVTKGRSSRKGTENGVNGTVTSNGADSPRNRKEKSS
# B2: SRα (natural protein)
# chain: MLDFFTIFSKGGLVLWCFQGVSDSCTGPVNALIRSVLLQERGGNNSFTHEALTLKYKLDNQFELVFVVGFQKILTLTYVDKLIDDVHRLFRDKYRTEIQQQSALSLLNGTFDFQNDFLRLLREREESSKIRAPTTMKKFEDSEKAKKPVRSMIETRGEKPKEKAKNSKKKGAKKESSDGPLATGKAVPAEKSGLPAGPENGVELSKEELIRRKREEFIQKHGRGLEKSSKSTKSDAPKEKGKKAPRVWALGGCANKEVLDYSAPTTNGAPDAAPPEDINLIRGTGPGGQLQDLDCSSSDDEETAQNASKPSATKGTLGGMFGMLKGLVGSKSLSREDMESVLDKMRDHLIAKNVAADIAVQLCESVANKLEGKVMGTFSTVTSTVKQALQESLVQILQPQRRVDMLRDIMDAQRHQRPYVVTFCGVNGVGKSTNLAKISFWLLENGFSVLIAACDTFRAGAVEHVRTHTRRLSALHPPEKHAGPTMVQLFEKGYGKDAAGIAMEAIAFARNQGFDVVLVDTAGRMQDNAPLMTALAKLITVNTPDLVLFVGEALVGNEAVDQLVKFNRALADHSMAQTPRLIDGIVLTKFDTIDDKVGAAISMTYITSKPIVFVGTGQTYCDLRSLNAKAVVAALMKA
# B3: TRAPα (natural protein)
# chain: GPGGSLVAAQDLTEDEETVEDSIIEDEDDEAEVEEDEPTDLAEDKEEEDVSGEPEASPSADTTILFVKGEDFPANNIVKFLVGFTNKGTEDFIVESLDASFRYPQDYQFYIQNFTALPLNTVVPPQRQATFEYSFIPAEPMGGRPFGLVINLNYKDLNGNVFQDAVFNQTVTIIEREDGLDGETIFMYMFLAGLGLLVVVGLHQLLESRKRKRPIQKVEMGTSSQNDVDMSWIPQETLNQINKASPRRLPRKRAQKRSVGSDE
# Molecular target: Sec61α (canine (endogenous in MDCK), UniProt P38377 1-476)
# Sequence (P38377 whole entry): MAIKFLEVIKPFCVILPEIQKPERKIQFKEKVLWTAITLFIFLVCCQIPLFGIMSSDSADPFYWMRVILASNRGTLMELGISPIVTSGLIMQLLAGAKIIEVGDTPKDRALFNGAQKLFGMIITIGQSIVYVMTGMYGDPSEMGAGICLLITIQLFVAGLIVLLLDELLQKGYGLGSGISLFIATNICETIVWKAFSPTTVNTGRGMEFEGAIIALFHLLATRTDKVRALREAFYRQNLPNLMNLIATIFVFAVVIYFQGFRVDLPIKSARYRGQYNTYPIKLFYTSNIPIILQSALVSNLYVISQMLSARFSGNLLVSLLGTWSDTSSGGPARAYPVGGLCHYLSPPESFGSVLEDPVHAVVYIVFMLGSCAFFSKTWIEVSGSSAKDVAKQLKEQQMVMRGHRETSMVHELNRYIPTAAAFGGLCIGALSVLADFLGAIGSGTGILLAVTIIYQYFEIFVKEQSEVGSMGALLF
# Assay: FRET or BRET
Binder,FRET efficiency (pactamycin-treated cells),FRET efficiency (puromycin-treated cells),FRET efficiency (untreated cells)
B1,19.7%,19.8%,17.6%
B2,32.2%,31.6%,34.1%
B3,15.2%,13.6%,18.4%

# Molecular target: Sec61β (canine (endogenous in MDCK), UniProt P60467 1-96)
# Sequence (P60467 whole entry): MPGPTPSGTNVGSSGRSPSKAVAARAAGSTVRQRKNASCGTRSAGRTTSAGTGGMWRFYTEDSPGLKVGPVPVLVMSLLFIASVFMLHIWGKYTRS
# Assay: FRET or BRET
Binder,FRET efficiency (pactamycin-treated cells),FRET efficiency (puromycin-treated cells),FRET efficiency (untreated cells)
B1,10.4%,11.9%,12.8%
B2,18.8%,17.2%,16%
B3,11.8%,11.1%,13.6%
